Test results as given in patent US20220249563A1 (LEGEND BIOTECH IRELAND, published 2022).

T1: extracellular domain of human DLL3 protein (aa27-466) having an N-terminal FLAG tag (AdipoGen, AG-40B-0151) (human, UniProt Q9NYJ7 27-466)
T1 construct: range 27-466; also called DLL3 ECD protein
T1 sequence (looked up): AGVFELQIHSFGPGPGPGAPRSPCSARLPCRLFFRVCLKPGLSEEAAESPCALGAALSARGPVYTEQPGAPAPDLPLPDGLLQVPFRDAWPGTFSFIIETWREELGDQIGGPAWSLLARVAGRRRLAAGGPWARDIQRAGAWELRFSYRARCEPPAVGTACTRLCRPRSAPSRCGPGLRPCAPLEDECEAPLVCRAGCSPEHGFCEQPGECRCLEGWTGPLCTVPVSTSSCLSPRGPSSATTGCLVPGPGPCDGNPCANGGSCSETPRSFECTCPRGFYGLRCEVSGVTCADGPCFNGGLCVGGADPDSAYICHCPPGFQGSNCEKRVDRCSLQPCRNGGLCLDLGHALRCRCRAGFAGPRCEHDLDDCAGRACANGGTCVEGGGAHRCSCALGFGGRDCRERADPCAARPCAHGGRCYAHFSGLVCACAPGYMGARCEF


Molecular target: T1, extracellular domain of human DLL3 …
Assay: ELISA (protein), FACS (cells)

binding result	Binder
binds	AS64097 (VHH, camel sdAb; crude E. coli supernatant) VHH: QVHLMESGGGSVQAGGSLRLSCEASGYTYSRNCMGWFRQAPGKEREGVAAINTGGGSTYYADSLEGRFTISQDNAKNTMYLQMNSLKPEDTAMYYCAAGPDLGGSWCRPVERAFTYWGQGTQVTVSS
binds	AS68270 (VHH, camel sdAb; crude E. coli supernatant) VHH: QVQLAESGGGSVQAGGSLRLSCVASGYPSSTYYMLSMAWFRQAPGKEREGVAAITSGTGSTSYADSVKDRFTISKDYANNTLYLHINNLKPEDTAMYYCAAASGWIVPSRSLTANLYRYWGQGTQVTVSS
binds	AS75751 (VHH, camel sdAb; crude E. coli supernatant) VHH: QVRLVESGGGSVQAGGSLRLSCVASGYFYNTYYFMGWFRQAPGKEREGVAAIDTDGRTSYADSVKGRFTISKDNAKNTLYLQMNSLKPEDTAMYYCAAGFGYMNVIQALNGMRQNPDYWGQGTQVTVSS
binds	AS63964 (VHH, camel sdAb; crude E. coli supernatant) VHH: QVRLVESGGGSVQAGGSLRLSCSASGYTYSYNNMGWFRQAPGNEREGVAAISGGRFTAYADSVKGRFTISRDNAENTLYLQMNNLKPEDTGMYYCAAEVVDPTWGSRDQRRYKYWGQGTQVTVSS
binds	AS64130 (VHH, camel sdAb; crude E. coli supernatant) VHH: EVQLAESGGGSVQAGGSLRLSCAASGYTYRSNFMGWFRQAPAKEREGVATIDSRGTITYYADSVKGRFTISQDNEKNTVYLQMNSLKPEDTAMYYCAAGGPRTNDDRWYPLRPPGYNYWGQGTQVTVSS
binds	AS75383 (VHH, camel sdAb; crude E. coli supernatant) VHH: EVQLAESGGGSVQAGGSLRLSCVASGYTFSSYCLGWFRQAPGKQRQGVATFNNRGVANYHDSVKGRFTASVDNAKNTLLLQMNSLEPDDTAMYYCAADRRYGRQWYQPCEWNTWGQGTQVTVSS
binds	AS64594 (VHH, camel sdAb; crude E. coli supernatant) VHH: QVHLVESGGGSVQAGGSLRLSCAASGYTYNSNYMGWFRQAPGKEREGVALIYTGGGSTYYADSVKGRFTISRDNAKNTVYLQMNSLKPEDTAMYYCSVRTQTRNYWGQGTQVTVSS
binds	AS75378 (VHH, camel sdAb; crude E. coli supernatant) VHH: QVQLEESGGGSVQAGGSLRLSCVVSGNTRSTTYMGWFRQAPGKEREGVAIVYTGGRDTYYAASVKGRFTISQDNAKTTIYLQMNSLEPEDTAMYYCAARSYEYTYWGRGTQVTVSS
binds	AS63932 (VHH, camel sdAb; crude E. coli supernatant) VHH: QVQLEESGGGSVQAGGSLRLSCVASGYTYGSTFMGWFRQNPGKEREGVAVIYTGGGSTWYASSVKGRFTISQDNAKNTVYLQMNSLKPEDTAMYYCAARYGSGNVNYWGQGTQVTVSS
binds	AS64228 (VHH, camel sdAb; crude E. coli supernatant) VHH: QVQLKESGGGSIQAGGSLRLSCAASGVSYNRCSMGWYRQAPGKGRELVSRIQPGGNTYYADSVKGRFTVSQDNAKNTVSLQMNSLKPEDTAMYYCNALCWRENVNYWGQGTQVTVSS
binds	AS64597 (VHH, camel sdAb; crude E. coli supernatant) VHH: QVHLVESGGGSVQAGGSLRLSCAASGYTYRVNFMGWFRQTPGKEREGVATIDSGVGTTYYADSVKGRFTISHNNAKNTIYLQMNSLKPEDTAMYYCAAGGPPTDGDRWYPLRPPGYNYWGQGTQVTVSS
binds	AS64072 (VHH, camel sdAb; crude E. coli supernatant) VHH: QVQLVESGGGSVQAGGFLRLSCALSGYSYYINLMAWFRQAPGKEREAVAAHGPVSGTAYYTDSVKGRFTISRDPGKNTMYLQMFSLQPEDTALYYCAAETTMGWAHERGYRYWGQGTQVTVSS
binds	AS64605 (VHH, camel sdAb; crude E. coli supernatant) VHH: QVKLVESGGGSVQAGGSLRLSCAVSRYPYSSICMGWFRQAPGKESEGVARIYTGTGSTWYTDSVKGRFTIARDNAQNTVYLQMNSLKPEDTAMYYCAARSNSYSYSSCDYGPLTRGGYNFWGQGTQVTVSS
binds	AS64137 (VHH, camel sdAb; crude E. coli supernatant) VHH: QVRLVESGGGSVQAGGSLRLSCAASGSTYSTNFMGWFRQAPGKEREGVATLVTWVERTAYADSVKGRFTISQDRAKNTVYLQMNSLKPEDTAMYYCAAAAASTDVRLLDPGDFAYWGQGTQVTVSS
binds	AS64634 (VHH, camel sdAb; crude E. coli supernatant) VHH: QVRLVESGGGSVQAGGSLRLSCAASGYSFRGDFMCMGWFRQTPGKGREGVAVFYPGGGSTNYADSAKGRFTISQDNAKNTMYLQMNTLKPEDTAMYYCAARRWVSGTCYWDSDFHYWGQGTQVTVSS
binds	AS68170 (VHH, camel sdAb; crude E. coli supernatant) VHH: QVQLVESGGGSVQAGGSLRLSCTASGYTYRSNCMGWFRQAPGKEREGVATIYTGGGRNLYYADSVKGRFTISRDNAKNTLYLQMNSLKPEDSARYYCAAASDVAVGVNSCGGRTAGFDAWGQGTQVTVSS
binds	AS68351 (VHH, camel sdAb; crude E. coli supernatant) VHH: QVQLEESGGGLVQPGGSLRLSCAASGDTFRAYYMNWVRQAPGKGFEWVSGISASGGRTSYADSVKGRFTISRDNAKNTLYLQLNSLSTEDTGMYYCVKGAVRLSTSSVRDSSWGQGTQVTVSS
binds	AS64116 (VHH, camel sdAb; crude E. coli supernatant) VHH: QVKLVESGGGSVQAGGSLRLSCAASGYIYSCVGWFRQAPGKEREGVAGISTGGGGTVYADSVKGQFTISRDNAKNTVYLQMDSLKPEDTAMYYCAADRWNSFANCGAWGRYTYWGQGTQVTVSS
binds	AS64395 (VHH, camel sdAb; crude E. coli supernatant) VHH: QVRLVESGGGSVQAGGSLRLSCAASGSTYSTNFMGWFRQAPGKEREGVATLVTWAERTAYADSVKGRFTISQDRAKNTVYLQMNGLKPEDTAMYYCAAAASTAVRLLDPGDFAYWGQGTQVTVSS
binds	AS68121 (VHH, camel sdAb; crude E. coli supernatant) VHH: EVQLAESGGGSVQAGGSLRLSCDASGYTYSRNCMGWFRQAPGKEREGVAAFYTDYIRFGRTYYADSVKGRFTIFQDNAKNTVYLQMNSLKPEDTAMYYCAADPGSRTDDSCGTSYNKGNFGYWGQGTQVTVSS
binds	AS64443 (VHH, camel sdAb; crude E. coli supernatant) VHH: QVHLVESGGGSVQAGGSLRLSCAASGYTDSSVYIGWFRQAPGKEREEVAIIYTGGESTHYRSSVKGRFTVSQDNAKNTLYLQMNSLKPEDTAMYYCAARFPAVTYWGQGTQVTVSS
binds	AS76422 (VHH, camel sdAb; crude E. coli supernatant) VHH: QVKLVESGGGSVQAGGSLRLSCAASGYTFAGNCLGWFRQAPGKGREGVVTYNNFGVANYADSVKGRFTVSQDNAKNTLLLQMNSLEPEDTAMYYCAADRRDGRRWSQPCEWNTWGQGTQVTVSS
binds	AS64123 (VHH, camel sdAb; crude E. coli supernatant) VHH: QVQLAESGGGSVQAGGSLRLSCAASGYTYTSNWLGWFRQAPGKEREEVAIIYTGSGSTHYRSSVKGRFTISQDNAKNTVYLQMNSLKPEDTAMYYCAARFSEYNYWGQGTQVTVSS
binds	AS63999 (VHH, camel sdAb; crude E. coli supernatant) VHH: EVQLVESGGGSVQAGGSLRLSCAASGYTYSSNWMGWFRQAPGKEREEVAIIYTGGISTHYRSSVKGRFTISQDNAKNTVYLQMNSLKPEDTAMYYCAARYTDYNYWGQGTQVTVSS
binds	AS64160 (VHH, camel sdAb; crude E. coli supernatant) VHH: EVQLVESGGGSVQAGGSLRLSCAASVYTSSSYCMGWFRQAPGKEREGVAAMCFGGLVTHYADSVKGRFTISQDNAKNTVYLQMNSLKPEDTAMYYCAADFGRDKNYLRPLLPHAYNYWGQGTQVTVSS
binds	AS64300 (VHH, camel sdAb; crude E. coli supernatant) VHH: QVHLVESGGGSVQTGGSLRLSCAVSGDIYNLMSMAWFRRAPGKEREGVAYINTIIGNTYYTDSVKGRFTISRDNSKNTLYLQMNNLKPEDTAMYYCAAFNYGGAWYEERSYKYWGQGTQVTVSS
binds	AS64142 (VHH, camel sdAb; crude E. coli supernatant) VHH: QVHLMESGGGLVQTGGSLRLSCTASGFTFDRNAMRWYRQAPGKEREGVSCIDWTGANIAYADSVKGRFTISRDNAKNTLYLQMNSLKPEDTGMYYCAADTTSGYCSGFWSTSRYSWGQGTQVTVSS
binds	AS64057 (VHH, camel sdAb; crude E. coli supernatant) VHH: QVQLEESGGGLVQTGGSLRLSCTASGFTFDRNAMRWYRQAPGKEREGVSCISWTGANIAYADSVKGRFTISRDNAKNTLYLQMNSLKPEDTGMYYCAADTTSGSCSGFWSTSRYYWGQGTQVTVSS
binds	AS68320 (VHH, camel sdAb; crude E. coli supernatant) VHH: QVHLVESGGDSVQAGGSLRLSCAASGYTYNTNYMGWFRQAPGKEREGVAAIYRHSGNTAYADSVKGRFTISQDYAKNTVYLQMNSLKPEDTAMYYCAAGRAGPWALMRPTEFGYWGQGTQVTVSS
binds	AS64114 (VHH, camel sdAb; crude E. coli supernatant) VHH: QVQLQESGGGSVQAGGSLTLSCEASGNTYSTNYMGWFRQAPGKEREEVAVIYTRGGHTYYVDSVRGRFTISQDNAKNTVYLQMNSLKPEDTAMYYCAAASRHRLRLNNPRDYDYWGQGTQVTVSS
